Assay results reported in patent US20220146535A1.

What was measured:
[1] = target: recombinant hTau-pT217 protein having the amino acid sequence of SEQ ID NO: 1 (human) (UniProt P10636); assay: BLI (Octet Red96), antibody captured on Protein A biosensor, hTau-pT217 0.4115-300 nM in solution, 1:1 fit, 25 C
[2] = target: recombinant hTau-pT217 protein having the amino acid sequence of SEQ ID NO: 1 (human) (UniProt P10636); assay: BLI (Octet Red96), antibody captured on Protein A biosensor, hTau-pT217 in solution, KD=koff/kon; column head prints (nM), paragraph 52 says molar units; not normalized for avidity
[3] = target: N-terminal biotin labeled peptide of SEQ ID NO. 26 with phosphorylated threonine at residue 7 (human); assay: BLI (Octet Red96), biotinylated peptide on streptavidin biosensor, IgG at 5 ug/mL, 300 s association and 300 s dissociation
[4] = target: T1, N-terminal biotin labeled peptide of SEQ ID NO. 26 without phosphorylated threonine at residue 7 (human); assay: as above
T1 sequence (peptide, N-terminal biotin; threonine at residue 7 not phosphorylated): RTPSLPTPPTR

[5] = target: recombinant hTau-pT217 protein having the amino acid sequence of SEQ ID NO: 1 (human) (UniProt P10636); assay: BLI (Octet Red96), antibody captured on Protein A biosensor, hTau-pT217 in solution, 1:1 fit, 25 C; column head prints (M^-1s^-1 units), paragraph 52 says s^-1

Chain of UniProt P10636 (P10636 other isoform, or with tags, fused parts or gaps limits assumed): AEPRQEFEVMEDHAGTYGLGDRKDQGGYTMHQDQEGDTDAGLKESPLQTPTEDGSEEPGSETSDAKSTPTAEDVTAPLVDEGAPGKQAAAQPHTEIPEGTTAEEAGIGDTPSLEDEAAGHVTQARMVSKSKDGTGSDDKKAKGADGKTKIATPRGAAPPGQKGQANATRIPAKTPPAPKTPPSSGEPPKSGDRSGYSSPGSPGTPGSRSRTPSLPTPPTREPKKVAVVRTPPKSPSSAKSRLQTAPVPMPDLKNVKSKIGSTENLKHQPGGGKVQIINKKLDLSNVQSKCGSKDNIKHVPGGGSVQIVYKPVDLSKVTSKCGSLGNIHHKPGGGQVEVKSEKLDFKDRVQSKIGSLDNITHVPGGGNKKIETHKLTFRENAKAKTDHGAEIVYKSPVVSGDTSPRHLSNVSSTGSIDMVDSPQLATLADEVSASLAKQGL

B1: mAb A, exemplified rabbit anti-hTau-pT217 antibody (antibody)
heavy: QSVEESGGRLVTPGTPLTLTCTVSGLSPSWYGVHWVRQAPGKGLEWIGVLRAGSHTYYAGWAKGRFAISKTSTTVALKITSPTTEDTAIYFCGSVGRGIWGPGTLVTVSLGQPKAPSVFPLAPCCGDTPSSTVTLGCLVKGYLPEPVTVTWNSGTLTNGVRTFPSVRQSSGLYSLSSVVSVTSSSQPVTCNVAHPATNTKVDKTVAPSTCSKPTCPPPELLGGPSVFIFPPKPKDTLMISRTPEVTCVVVDVSQDDPEVQFTWYINNEQVRTARPPLREQQFNSTIRVVSTLPIAHQDWLRGKEFKCKVHNKALPAPIEKTISKARGQPLEPKVYTMGPPREELSSRSVSLTCMINGFYPSDISVEWEKNGKAEDNYKTTPAVLDSDGSYFLYSKLSVPTSEWQRGDVFTCSVMHEALHNHYTQKSISRSPGK
light: AQVLTQTASPVSATVGGTVTINCQASLAVYNNNYLAWYQQKPGQPPKRLIYLASSLSSGVSSHFKGSGSGTQFTLTISDVQADDAATYFCQGSYDCTIADCVAFGGGTEVVVKGDPVAPTVLIFPPAADQVATGTVTIVCVANKYFPDVTVTWEVDGTTQTTGIENSKTPQNSADNTYNLSSTLTLTSTQYNSHKEYTCKVTQGTTSVVQSFNRGDC
[1]
  kon: 339000 M⁻¹ s⁻¹
[2]
  Kd: 0.695 nM
[3]
  binding signal at the end of dissociation: 4.42 nm
[4]
  binding signal at the end of dissociation: -0.0024 nm
[5]
  koff: 0.000236 s⁻¹
